Experimental data: IntAct's records for PubMed 19154346

B1: Calreticulin (Homo sapiens), P27797 (parent)
chain: MLLSVPLLLGLLGLAVAEPAVYFKEQFLDGDGWTSRWIESKHKSDFGKFVLSSGKFYGDEEKDKGLQTSQDARFYALSASFEPFSNKGQTLVVQFTVKHEQNIDCGGGYVKLFPNSLDQTDMHGDSEYNIMFGPDICGPGTKKVHVIFNYKGKNVLINKDIRCKDDEFTHLYTLIVRPDNTYEVKIDNSQVESGSLEDDWDFLPPKKIKDPDASKPEDWDERAKIDDPTDSKPEDWDKPEHIPDPDAKKPEDWDEEMDGEWEPPVIQNPEYKGEWKPRQIDNPDYKGTWIHPEIDNPEYSPDPSIYAYDNFGVLGLDLWQVKSGTIFDNFLITNDEAYAEEFGNETWGVTKAAEKQMKDKQDEEQRLKEEEEDKKRKEEEEAEDKEDDEDKDEDEEDEEDKEEDEEEDVPGQAKDEL

Variants of: B1
Conditions: with gbrap_human GABARAP
W200A was tested, and the “effect of a mutation on the interaction” value was “disrupting interaction”.
